One test relates to B16LM3 tumor. Briefly: Syngeneic B16LM3 tumor model, survival. The conditions noted are these: mAb13 15 mg/kg in combination with anti-PD-1 Ab 10 mg/kg i.p., days 1, 5, 8, 12, 15; relative to No Treatment, Isotype Control or anti-PD-1 Ab. Type of test: in vivo, C57BL/6 mice. The procedure:
B16LM3 model was established in female C57BL/6 mice by subcutaneous injection of 0.5×10^6 cells into the right flank of each mouse. The day after implant mice were randomized into treatment groups (n=10 per group). Mice received treatments of either anti-mouse ENTPD2 mAb13 or a non-specific mIgG2a isotype control (clone MOPC-173, BioLegend, San Diego, CA) at a final dose 15 mg/kg on Day 1, 5, 8, 12, 15.
Anti-PD-1 Ab (clone RMP1-14 Bio X Cell, West Lebanon, NH) or non-specific rIgG2a isotype control (clone RTK2758, BioLegend, San Diego, CA) were delivered i.p. at a final dose of 10 mg/kg on days 1, 5, 8, 12, 15. All doses were adjusted to individual mouse body weights.

Another test has as its target T1, ENTPD2 (Homo sapiens, UniProt Q9Y5L3).
T1 sequence (Q9Y5L3 1-495): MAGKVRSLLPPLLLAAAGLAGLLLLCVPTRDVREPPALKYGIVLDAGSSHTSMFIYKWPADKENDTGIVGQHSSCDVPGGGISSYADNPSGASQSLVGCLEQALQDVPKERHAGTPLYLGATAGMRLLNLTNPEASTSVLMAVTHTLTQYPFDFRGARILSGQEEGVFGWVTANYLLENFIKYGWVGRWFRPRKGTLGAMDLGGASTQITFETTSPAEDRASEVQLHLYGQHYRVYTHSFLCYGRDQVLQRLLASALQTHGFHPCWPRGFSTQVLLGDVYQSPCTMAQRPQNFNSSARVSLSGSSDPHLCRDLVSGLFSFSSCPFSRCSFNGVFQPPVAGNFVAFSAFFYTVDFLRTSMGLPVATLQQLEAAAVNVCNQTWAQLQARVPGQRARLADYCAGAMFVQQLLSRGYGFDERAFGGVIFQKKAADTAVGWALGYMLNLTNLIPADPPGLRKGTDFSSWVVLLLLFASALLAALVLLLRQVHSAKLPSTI
Briefly: FACS binding to human ENTPD2 expressing cells (NIH/3T3). Also on record: expressed in transfected cells. From the text:
Ten days after fusion, hybridoma plates were screened for the presence of ENTPD2-specific antibodies using flow cytometry to confirm specific binding of candidate antibodies to cell surface-expressed human ENTPD2 using three cell lines: parental NIH/3T3 cells, NIH/3T3 cells stably overexpressing human ENTPD2, and RKO cells (ATCC®), which expresses endogenous human ENTPD2. Cells were rinsed thoroughly with PBS, treated with Accutase (Millipore #SCR005) to lift them from the growth plates, and resuspended in cold PBS. Cells were biotinylated and labeled with a fluorescent dye according to manufacturer's instructions (FluoReporter™ Cell-Surface Biotinylation Kit, Thermo Fisher Scientific Cat #F-20650; PE-Cy7 Steptavidin, ThermoFisher Scientific Cat #SA1012). Cells were resuspended at approximately 1×10^6 cells/ml in FACS buffer (PBS with 2% FBS+0.1% NaN3). In a 384-well plate, 20 μL of hybridoma supernatant was pre-seeded and 20 μL of cell suspension was added. […] Geometric mean fluorescence intensity was calculated on live single cells using FlowJo™ software.
FACS screening: Specific binding of candidate antibodies to endogenously expressed ENTPD2 was assessed by flow cytometry. […] Geometric mean fluorescence intensity was calculated on live single cells using FlowJo software.
Background: In flow cytometry, cells or beads pass a laser one at a time.

B1: mAb13: anti-mouse ENTPD2 monoclonal antibody, VH SEQ ID NO: 191, VL SEQ ID NO: 202 (antibody, V domains shown)
VH: QVQLVQSGAELKQPGQSVKISCKASGYTFTHYGMNWVKQAPGQGLKWMGWINTDTGNPTYADDFKGRFVFSLDTSVSTAYLQISNLKNEDTATYYCVRYGTLYSGYGFFFDSWGQGTLVTVSS
VL: DIMMTQSPSSLSVSAGEKATITCKSSQSLFNSNTNKNYLNWYLQKPGQSPKLLFYYASTRHTGVPDRFIGSGSGTDFTLTITSVQDEDLADYYCQQWYSYPWTFGPGTKLEIK
For the molecule B1, in the test with B16LM3 tumor, the mouse survival result was “significantly extended mouse survival”. The “binding to human ENTPD2” value with ENTPD2 was “no binding”.
